Test results reported in patent US20250074996A1 (Innovent, published 2025).

T1: Human BCMA-Bio (human, UniProt Q02223 1-54, biotin-labeled)
T1 construct: Bought antigen; also called human BCMA antigen (ACRO Biosystems)
T1 sequence (looked up): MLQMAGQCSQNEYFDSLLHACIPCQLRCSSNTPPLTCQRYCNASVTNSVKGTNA


What was measured:
[1] = target: T2, CD3E on the surface of Jurkat-NFAT-Luc cells (UniProt P07766 23-207); assay: cell-based or functional assay
[2] = target: T2, CD3E on the surface of Jurkat-NFAT-Luc …; assay: cell-based or functional assay; remark: listed apart in the source
human GPRC5D = target: T3, human GPRC5D (human, UniProt Q9NZD1 1-345); assay: flow cytometry on huGPRC5D GS-CHO cells
T3 construct: whole, on cells; also called huGPRC5D; G protein-coupled receptor family C group 5 member D
T3 sequence (Q9NZD1 whole entry): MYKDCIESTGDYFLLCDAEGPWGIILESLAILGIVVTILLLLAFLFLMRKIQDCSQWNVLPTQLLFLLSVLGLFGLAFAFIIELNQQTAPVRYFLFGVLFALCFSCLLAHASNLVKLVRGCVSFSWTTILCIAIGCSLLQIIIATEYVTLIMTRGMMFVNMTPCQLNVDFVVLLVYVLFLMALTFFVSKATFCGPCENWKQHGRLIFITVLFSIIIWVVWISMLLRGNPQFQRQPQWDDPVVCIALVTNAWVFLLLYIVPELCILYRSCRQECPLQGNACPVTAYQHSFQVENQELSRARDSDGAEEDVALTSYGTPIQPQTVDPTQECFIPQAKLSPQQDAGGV
Procedure: The affinity of the anti-GPRC5D antibody was detected by flow cytometry. Antibodies at various concentrations were co-incubated with cells expressing human GPRC5D, including GS-CHO cells overexpressing human GPRC5D (huGPRC5D GS-CHO), multiple myeloma cells MM1.R, H929 and AMO-1, for 30 min. A fluorescently-labeled secondary antibody (APC-mouse anti-human IgG Fc antibody, Biolegend, Cat #409306) was then added, the cell fluorescence intensity was detected using a Live/Dead yellow dead cell stain (Thermo Fisher, Cat #L34967) by flow cytometry, a curve was fitted using GraphPad Prism 8.0, and the EC50 value was calculated to show the binding affinity of the antibody to human GPRC5D.
In the exemplary trispecific antibodies, the binding affinities of the antigen-binding sites from the humanized antibodies hz5E12.1.P1 and hz11B7.5 to GPRC5D were detected.

Human BCMA-Bio = target: T1, Human BCMA-Bio; assay: BLI (Octet Red96e), SA or AHC sensors, 1:1 fit
Procedure: (§1) Sensors (Fortebio, Cat #18-5019) coupled to streptavidin protein (SA) or anti-human-Fc (AHC) were pre-wetted by immersion in 200 μL of SD buffer (1×PBS, 0.1% BSA, 0.05% tween-20). Exemplary antibodies and biotin-labeled or Fc-tagged BCMA and CD3D&E heterodimer antigens were diluted with SD buffer, respectively. 200 μL of SD buffer and diluted samples (100 nM) were taken and added to a 96-well black plate (Greiner, Cat #655209), respectively. The sensors and the samples were placed in Octet (Fortebio, Red96e). Data Acquisition 10.0 was executed and “New Kinetic Experiment” was selected. The sensors were arranged according to the positions of the samples, and the operation procedures and times were set as: Baseline 60 s, Loading 250 s, Baseline 100 s, Association 600 s and Dissociation 600 s. The experiment was conducted at a rotation speed of 1000 rpm and 30° C.
(§2) The results were analyzed in “Data Analysis 10.0” software, with the buffer reference channel being subtracted. 1:1 binding was selected to fit the data, and kₒₙ, koff, and KD values for the exemplary antibodies were calculated.
(§3) In the experiments performed according to the above-mentioned assay, the exemplary antibodies were detected using a human BCMA antigen (ACRO Biosystems) and a monkey BCMA antigen (ACRO Biosystems). The detection results of the affinities to human BCMA are shown in Table 6; and the detection results of the affinities to monkey BCMA are shown in Table 7.

Cyno BCMA-Fc = target: T4, Cyno BCMA-Fc (monkey (cyno), UniProt A0A2K5UD97 1-53); assay: BLI (Octet Red96e), SA or AHC sensors, 1:1 fit
T4 construct: also called monkey BCMA antigen (ACRO Biosystems); not shown: Fc tag of the bought antigen
T4 sequence (A0A2K5UD97 entry or part of it): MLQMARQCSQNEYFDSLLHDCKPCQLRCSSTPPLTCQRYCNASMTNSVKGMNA
Procedure: as §1, §2, §3

Human CD3D&E-Bio = target: T5, Human CD3D&E-Bio (human, UniProt P07766 23-126; P04234 22-105, biotin-labeled (site not stated)); assay: BLI (Octet Red96e), SA or AHC sensors, 1:1 fit
T5 construct: Bought heterodimer antigen; also called human CD3D&E heterodimer antigen (ACRO Biosystems); human CD3E
T5 sequence (P07766 23-126 limits assumed, chain 1 of 2): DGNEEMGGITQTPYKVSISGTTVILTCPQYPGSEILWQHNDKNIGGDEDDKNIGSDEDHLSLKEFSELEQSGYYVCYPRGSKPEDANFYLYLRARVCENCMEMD
T5 sequence (P04234 22-105 limits assumed, chain 2 of 2): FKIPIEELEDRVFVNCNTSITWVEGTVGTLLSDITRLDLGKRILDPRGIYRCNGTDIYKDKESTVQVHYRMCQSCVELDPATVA
Procedure: as §1, §2
(§4) In experiments performed according to the above-mentioned assay, the affinities of the exemplary antibodies were detected using a human CD3D&E heterodimer antigen (ACRO Biosystems) and a monkey CD3D&E heterodimer antigen (ACRO Biosystems). The binding affinities of GPRC5D×CD3 bispecific antibodies hz5E12.1-P1/SP34.24 and hz5E12.1-P1/SP34.87 to human/monkey CD3D&E were also detected.

Cyno CD3D&E-Bio = target: T6, Cyno CD3D&E-Bio (monkey (cyno), UniProt Q95LI5 22-117; Q95LI8 22-105, biotin-labeled (site not stated)); assay: BLI (Octet Red96e), SA or AHC sensors, 1:1 fit
T6 construct: Bought heterodimer antigen; also called monkey CD3D&E heterodimer antigen (ACRO Biosystems); monkey CD3E
T6 sequence (Q95LI5 22-117 limits assumed, chain 1 of 2): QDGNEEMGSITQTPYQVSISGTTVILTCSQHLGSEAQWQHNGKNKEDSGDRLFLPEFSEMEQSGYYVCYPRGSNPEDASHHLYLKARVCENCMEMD
T6 sequence (Q95LI8 22-105 limits assumed, chain 2 of 2): as the sequence (P04234 22-105 limits assumed, chain 2 of 2) above, with I5V, N15K, I20V, S32T, D33N, I34N, T64A, S74N, V83L counted along it
Procedure: as §1, §2, §4

T2 sequence (P07766 23-207): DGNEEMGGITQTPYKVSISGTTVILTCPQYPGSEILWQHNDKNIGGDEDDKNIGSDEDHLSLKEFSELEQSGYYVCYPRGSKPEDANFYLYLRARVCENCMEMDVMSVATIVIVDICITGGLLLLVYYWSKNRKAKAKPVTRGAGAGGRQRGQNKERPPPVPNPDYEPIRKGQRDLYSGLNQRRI

Row | Binder | EC50 of Jurkat-NFAT-Luc luciferase activation; tumor cells 8226 [1] [nM] | EC50 of Jurkat-NFAT-Luc luciferase activation; tumor cells H929 [1] [nM] | EC50 of Jurkat-NFAT-Luc luciferase activation; tumor cells L363 [1] [nM] | EC50 of Jurkat-NFAT-Luc luciferase activation; tumor cells U266 [1] [nM] | EC50 of Jurkat-NFAT-Luc luciferase activation; tumor cells ARD [2] [nM] | EC50 of Jurkat-NFAT-Luc luciferase activation; tumor cells MM.1S [2] [nM] | EC50 (human GPRC5D) [nM] | Kd (Human BCMA-Bio) [nM] | koff (Human BCMA-Bio) [s⁻¹] | kon (Human BCMA-Bio) [M⁻¹ s⁻¹] | Kd (Cyno BCMA-Fc) [nM] | koff (Cyno BCMA-Fc) [s⁻¹] | kon (Cyno BCMA-Fc) [M⁻¹ s⁻¹] | Kd (Human CD3D&E-Bio) [nM] | koff (Human CD3D&E-Bio) [s⁻¹] | kon (Human CD3D&E-Bio) [M⁻¹ s⁻¹] | Kd (Cyno CD3D&E-Bio) [nM] | koff (Cyno CD3D&E-Bio) [s⁻¹] | kon (Cyno CD3D&E-Bio) [M⁻¹ s⁻¹]
1 | TS-F2-4 (hz5E12.1.P1/SP34.24/38456) (antibody, human IgG1, kappa, lambda, L234A L235A) heavy 1: not shown light 1: DIVMTQSPDSLAVSLGERATINCRASESVDSYGITFMNWYQQKPGQPPKLLIYAASNQGSGVPDRFSGSGSGTDFTLTISSLQAEDVAVYYCQQSKEVPWTFGQGTKLEIKRTVAAPSVFIFPPSDEQLKSGTASVVCLLNNFYPREAKVQWKVDNALQSGNSQESVTEQDSKDSTYSLSSTLTLSKADYEKHKVYACEVTHQGLSSPVTKSFNRGEC heavy 2: not shown light 2: QAVVTQEPSLTVSPGGTVTLTCRSSTGAVTTSNYANWVQQKPGQAPRGLIGGTNKRAPGVPARFSGSLLGDKAALTLLGAQPEDEAEYYCALWYSNLWVFGQGTKLTVLGQPKAAPSVTLFPPSSEELQANKATLVCLISDFYPGAVTVAWKADSSPVKAGVETTTPSKQSNNKYAASSYLSLTPEQWKSHRSYSCQVTHEGSTVEKTVAPTECS | 0.00788 | 0.00738 | 0.00629 | 0.0503 | 0.00238 | 0.00179 | 40 | 2.27 | 0.000297 | 131000 | 0.204 | 0.0002 | 980000 | 22.1 | 0.00326 | 147000 | 22.7 | 0.00301 | 132000
2 | TS-F2-5 (hz5E12.1.P1/SP34.87/38456) (antibody, human IgG1, kappa, lambda, L234A L235A) heavy 1: not shown light 1: DIVMTQSPDSLAVSLGERATINCRASESVDSYGITFMNWYQQKPGQPPKLLIYAASNQGSGVPDRFSGSGSGTDFTLTISSLQAEDVAVYYCQQSKEVPWTFGQGTKLEIKRTVAAPSVFIFPPSDEQLKSGTASVVCLLNNFYPREAKVQWKVDNALQSGNSQESVTEQDSKDSTYSLSSTLTLSKADYEKHKVYACEVTHQGLSSPVTKSFNRGEC heavy 2: not shown light 2: QAVVTQEPSLTVSPGGTVTLTCRSSTGAVTTSNYANWVQQKPGQAPRGLIGGTNKRAPGVPARFSGSLLGDKAALTLLGAQPEDEAEYYCALWYSNLWVFGQGTKLTVLGQPKAAPSVTLFPPSSEELQANKATLVCLISDFYPGAVTVAWKADSSPVKAGVETTTPSKQSNNKYAASSYLSLTPEQWKSHRSYSCQVTHEGSTVEKTVAPTECS | 0.0211 | 0.0178 | 0.0213 | 0.858 | 0.00696 | 0.00734 | 45 | 2.1 | 0.000279 | 133000 | 0.21 | 0.0002 | 950000 | 243 | 0.0188 | 77500 | 220 | 0.0173 | 78600
